# Test results reported in the nanobody polyreactivity screen of Harvey et al. (2022).
# Assay: yeast display, Sf9 membrane polyspecificity reagent, FACS + sequencing; frameworks hold sequencing errors
# Procedure, shortened: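 In a synthetic yeast display library (Saccharomyces cerevisiae BJ5465), nanobody expression was induced with galactose for 36–48 hours. FACS gates were set low and high (top ~1%) using anti-HA fluorescence for expression and streptavidin fluorescence for binding of the Sf9 membrane reagent. Each polyreactivity label is drawn from the gate of origin.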
row,Sequence,polyreactivity (PSR sort gate)
1,QVQLVESGGGLVQAGGSLRLSCAASGFIFYYYAMGWYRQAPAKERELVAVITSGGSTNYADSVKGRFTISRDNAKNTVYLQMNSLKPEDTAVYYCAARSRRRDDYWGQGTQVTVSS,high polyreactivity
2,QVQLVVSGGGLVQAGGSLRLSCAPSGRTFKPYVMGWYRQAPGKERELVAAISSRGGSTYYADSVKGRFTISRDNEKTTVFLQMNSLKPEDTAVYYCNAAYWFSNKNGYWGQGTQVTVSS,high polyreactivity
3,QVQLVESGGGLVQAGGRLRLRCAASGSIFEPNAMGWYRQSPWKERELVATIRDSGGRTYYADSVKGRFTISRDNAKNTVYLQMNSLKPEDTAVYYCAARRYLGWFSYRLYDYWGQGTQVTVSS,high polyreactivity
4,QVQLVESGGGLVQAGGSLRLSCAASGSIFRWYAMGWYRQAPGKERELVAGITRGGRTNYADSVKGRFTISRDNAKNTVYLQMNSLKPEDTAVYYCAKVSRSKQKFDYWGQGTQVTVSS,high polyreactivity
5,QVQLVESGGGLVQAGGSLRLSCAASGCTFLYYMGWYRQAPGKERELVSALTFSGGSTYYADSVKGRFTISRDNAKNTVYLQMNSLKPEDTAVDDGAAGWYDWPKYLLSVYTYYLYDYWGQGSQVTVSS,low polyreactivity
6,QVQLVESGGGLVQAGGSLRLSCAASGSTLVGNTMGWYRQAPGKERELVAAITGVGSRNYADSVKGRFTISRDNAKNTVYLQMNSLKPEDTALYYCAAETWYSVLWEEGYDYWGHGTQVTVSS,low polyreactivity
7,QFQLVESGRGLVQAGGSLRLSCAASVRIFLWYAMGWYRQAPGKERELVAVIRGRGDSTSYADSVKGRFTISRDNAKNTVYLQMNSLKPEDTAVYYCADVGRYDYNYWGQGTQVTVSS,low polyreactivity
8,QVQLVESGGGLVQAGGSLRLSCAFYYGMGWYRQAPGKERELVAAITLGGGSTYYADSVKGRFTISRDNAKNTVYLQMNSLKPEDTAVYYCNVTDVTEPSLIDGYYWGQGTQVTVSS,low polyreactivity
9,QVQLVESGGGLVQAGGSLRFSCAASGSTFGYYAMGWYRQAPGKEREMVAVITYSGGSTYYADSVKGRFTISRDNAKNTVYLQMNSLKPEDTAVYYCATDNYDWSSWAFRGYWYDYWGQGTQVTVSS,low polyreactivity
10,QVQLVESGGGLVQAGGSLRLSCAASGSIFRYNAKGWYRQAPGKERELVAARRSRGGSTNYADSVKGRFTISRDNAKNTVYLQMNSLKPEDNAVYFCAADGSYTKTTIYIFGGLDFWGQGTQVTVSS,low polyreactivity
11,QVQLVESGGGLVQAGGSLRLSCAASGFIFDSYAMGWNRQAPGKERELVAAIDKRGGRTYYADSVKGRFTISRDNGKNTVYLQMNSLKPEDTAVYYCAADDYTGYGYWGQGTQVTVSS,high polyreactivity
12,QVQLVESRVGLVQAGGSLRLSCAASGRIFHYYAMGWYRQAPGKERELVAAINASGTSTYYADSVKGRFTISRDNAKNTVYLQMNSLKPEDTAVYYCAAQPYYRGGSYSYTRNSKLIYWGQGTQVTVSS,high polyreactivity
13,QVQLVESGGGLVQAGGSLRLSCAASGRTFRTYTMGWYRQAPGKERELVATISWSGGSTNYADSVKGRFTISRDNAKNTVYLQMNSLKPEDTAVYYCNAYVSPRYRGSRYYYWGQGTQVTVSS,high polyreactivity
14,QVQLVESGGGLVQAGGSLRLSCAASGFILRQNVMGWYRQAPGKERELVAAISRSGGRTYYADSVKGRFTISRDNAMNTVYFQMNSLKPEDTAVDYCNAGRYNYTDDYWGQGTQVTVSS,high polyreactivity
15,QVQLVESGGGLVQAGGSLRLSCAASGLTFHYYAMGRYRQATGKERELVAVIRGSCTSTYYADSVKGRFTISRDNAKNTVYLQMNSLKPEDTAVYYFAAPYQYRRSGRVLGKYDSRGQGTQVTVSS,high polyreactivity
16,QVQLVESGGGLVQAGGSLRLSCAASGSTFQINAMGWYRQAPGKERELVARNSGSGSRTYYADSVKGRFTISRYNAKNTVSLQMNSLKPEDTAVYYCAARGTGKGYDSWGQGTQVTVSS,high polyreactivity
17,QVQLVESGGGLVQAGGSLRLSCAASGITFYRYAMGWYREAPGKERELVAAISRSGGGTHYADTVKGRFTISRDNAMNTVYLQMYCLKPEDTAVFYCAASAYSYDYWGQGNQVTVSS,high polyreactivity
18,QVQLVESGGGLVQAGGSLRLSCAASGRILASYAMGWYRQAPGKEWELVAAIRYRGSTSYADSVKGRFTISRDNAKNTVYLQMNSLKPEDTGVYYCAAKWHVRGRGARYRYDYDFWGQGTQVTVSS,low polyreactivity
19,QVQLVESGGGLVQAGGSLRLSCAASGYIFFANAMGWYRPAPGKERELVAAISSDGRTYYADSVKGRFTISRDNAKNTVYLQMNRLKPEDTAVYYCAAYFSGLTYGYYVAGYDYWGQGTQVTVSS,low polyreactivity
20,QLQLVESGGGLVQAGGRLRLTCAASGRTFPYYFMGWYRPAPGKERELVAAINSGGRTNYADSVKGLFTISRDNAKNTVYLQMNSLKPEDTAVYYCTKRGHPARLGYYYWGQGTQVTVSS,low polyreactivity
21,QVQLVESGGGLVQAGGSLRLSCAASGRTFDGYAMGWYSQAPGKERELVAALSSRSGRTYYADSVKGRFTISRDNAKNTVYLQMNSLKPEDTAGYYCAAVNKPRSEDYGYWGQGTQVTVSS,high polyreactivity
22,QVQLVESGGGLVQAGGSLRLSCAASGSIFSQYAMGWYRQAPGKERELVAAITYGGGSTYYADSVKGRFTISRDNAKNTVYLQMNSLKPEDTAVYYCAKEFKYWGYPYDYWGQGTQVTVSS,low polyreactivity

row,Sequence,polyreactivity (PSR sort gate)
1,QVQLVESGGGLVQAGGSLRLSCAASGFTLEYYAMGWYRQAPGKERELVASISSGGRTNYADSVKGRFTISRDNAKNTVYLQMNSLKPEDTAVYYCAAEYRSWGRYRYRFNYWGEGTQVTVSS,high polyreactivity
2,QVQHVESGGGLVQAGGSLRLSCAASGSIFGTYAIGWYRQAPGKERELVATISYGDGSTYYADSVKGRFTISRDNAKNTVYLEMNSLKPEDTAVYYCNTGVYSSGGPLDYWGQGTQVTVSS,low polyreactivity
3,QVQLVESGGGLVQAGGSLRLSCASSGNTFKTNAMGWYRQAPGKERELVAAISSSGSTYYADSVKGRFTISRDNAKNTVYLQMNSLKPEDTAVYYCAVTYRRFYYWGQGTQVTVSS,high polyreactivity
4,QVQLVESGGGLVQAGGSLRLSCAASGSTFHRNTMGWYRQAPGKERELVAGISLRGVRTYYADSVKGRFTISRDNAKNTVYLQMNSLKPEDTAVYYCAAGGPYTRNFKLGYWGQGTQVTVSS,high polyreactivity
5,QVQLGESGGGLVQAGGSLRLSCAASGSMFYSNARGWYRQAPGTERELVASIRGSGVSTYYADSVKGRFTISRDNAKNTVYLPMNSLKPEDTAVYDCAPRYGRSYFGYYYWGQGTQVTVSS,high polyreactivity
6,QVQLVESGGGLVQAGGSLRLSCAASGRIFKYYTLGWYRQAPGKERELVAAITSRGGTTYYADSVKGRFTISRDNAKNTVYLQMNSLKPEDTAVYDCAKKRVFRHYYYYATYDYWGQGTQVTVSS,low polyreactivity
7,HVQLVESGGGLVQAGGSLRLSCAASGFTFYVYAMGWYRQAPGTERELVAAISRGGSTYYADSVKGRFTISRDNAKNTVYLQMNSLKPEDTAVYYCNRVPSVSSSKVRYSNGFDYWGQGTQVTVSS,low polyreactivity
8,QVQLVESGGGLVQAGGSLRLRCAASGSTFLYYSMGWYREAPGKECELVAAISSTDDSTYADSVKGRFTISRDNAKNTVYLQLNSLKPEDTAVYYCAADVQTLITLGQFDYWGQGTQVTVSS,low polyreactivity
9,QVQLVESGGGLVQAGGSLRLSCAASGRIFFGYAMGWYRQAPGKERELVASISRGGSTNYADSVKGRFTISRDNAKNTVYLQMNSLKPEDTAVYYCAASRYLQRYGMYYWGQGTQVTVSS,high polyreactivity
10,QVQLVESGGGLVQAGGSLRLSCAASGRTYVSYAMGWYRQAPGKERELVATITGSTGGTYYADSVKGRFTISRDHAKNTVYLQMNSLKPEDTAVYYCNKDYYYNPGNVASGYDYWGQGTQVTVSS,low polyreactivity
11,QVQLVESGGGLVQEGGSLRLSCAASGFTFARYAMGWYRQSPGKERELVARISSRGGSTNFADSVKGRFTISRDNAKNTVYLQMNSLKPEDTAVYYCAKYYSSKYYYWGQGTQVTVSS,high polyreactivity
12,QVQLVESGGGLVQAGGSLRLSCAASGRIFHANAMGWYRQAPGKERELVAGISRNGGRTYYADSVKGRFTISRDNAKNTVYLQMNSLKPEDSAVYYCNALHWHSNELDYYWGQGTQVTVSS,high polyreactivity
13,QVQLVESGGGLVQAGGSLRLSCAASGITFGVYALGWSRQARGNERELVAAISVNGGSTYYADSVKGRYTISRDNAKNTVYLQMNSLKPEDTAVYYCAADVLYYIDDDSIIEYDYWGQGTQVTVSS,low polyreactivity
14,QVQLVESGGGLVQAGGSLRLSCAASGSIFDGNAMGWYRQAPGKERELVASISDSGGSTYYADSVKGRFTISRDNAKNTVYLQMNSLKPEDTAVYYCAKVFVRFYDYYINYWGQGTQVTVSS,low polyreactivity
15,QVQRVESGGGLVQAGGSLRLSCAASGRTFAPYAMGWSRQAPGKARELVAGITYGGSRTYYADSVKGRFTISRDNAKNTVYLQMNSLKPEDPAVYYCNARSYPYQIRYVTYGAGYYYWGQGTQVTVSS,high polyreactivity
16,QVQLVESGGGLVQAGGSLRISCAPSGSTFYKYTMGWYRQAPGKERELVAAISGSGTTTYYADSVKGRFTISRDNAKNTVYLRMNSLKPEDTAVYYCNTARGYDYGGLDYWGQGSQVTVSS,high polyreactivity
17,QVQLVESGGGLVQAGGSLRLSCAASGIIFWSYTMGWYRQAPGKEREFVASLRKSGGSTYYADSVKGRFTISRDNSKNTVYLQMNSLKPEDTAVYYCAAVYRRYLGGGYDYWGQGTQVTVSS,high polyreactivity
18,QVQLVESGGGLVQAGGSLRLSCAASGRIFYGNVMGWYRQAPGKERELVAAITRSGGSTYYADSVKGRFTISRDYAKNTVYLQMNSLKPEDTAVYYSNDALVSRDRSYEYWGQGTQVTVSS,high polyreactivity
19,QDQLVESGGGLVQAGGSLLLSCAASGIIITGNAMVWYRQAPGKERELVAGITGSGGNTYYADCVKGRYTISRDNAKNTFYLQMNSLKPEDTGVYYCAARRHIFLLIIWSGRVDYWGQGTQVTVSS,low polyreactivity
20,KVQIVESVGGLVQAGASLRLSCAASGSIFRYYPMGWYRQAPGKERELDAAISSSGTTYYADSVKGRFTISRDNAKNTVYLQMNRLKPEDCAVYYCAAVWTYWYYGDDYWGLGTQVTVSS,low polyreactivity
21,QVHLVESGGGLVQAGGSLRLSCAASGLIFVDNAMGWYRQAPGKERELVAAIDSGGSTNYADSVKGRFTISRDNEKNTVYLQMNSLKTEDTAVYYCAADWIYAPWYYQECVEYYYWGQGTQVTVSS,low polyreactivity
